Measured values: doi:10.1101/2024.12.16.628704

How the values were obtained:
[1] = molecular target: sialylated IgG1 GA (G236A) Fc (human); assay: SPR
[2] = molecular target: sialylated IgG1 V11 (G237D, P238D, H268D, P271G, A330R) Fc (human); assay: SPR

FcγRIIA (CD32a), variant not named in the sentence (from UniProt P12318 34-317) (receptor)
fold change in affinity against WT sFc [1]: 10 fold

FcγRIIB (CD32b), as used in SPR with Fc proteins (from UniProt P31994 43-310) (receptor)
fold change in affinity against WT sFc [2]: 37 fold

FcγRIA (CD64) (from UniProt P12314 16-374) (receptor)
fold weaker affinity against WT sFc [2]: 193 fold
